Measured values reported in paper PMC5829564 (Nucleic Acids Research, 2018).

T1: Grhl1 DBD (Homo sapiens, UniProt Q9NZI5 248-485)
T1 sequence: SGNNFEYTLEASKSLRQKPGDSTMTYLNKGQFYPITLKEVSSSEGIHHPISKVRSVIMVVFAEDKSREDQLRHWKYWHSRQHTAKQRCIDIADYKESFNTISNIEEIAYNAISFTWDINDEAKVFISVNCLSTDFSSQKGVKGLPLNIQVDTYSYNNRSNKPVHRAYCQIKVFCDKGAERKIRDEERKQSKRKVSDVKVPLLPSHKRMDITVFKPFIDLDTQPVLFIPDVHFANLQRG

B1: ΔN_Grhl1 (N-terminal truncation construct of human Grhl1, aa 248–618; DBD plus dimerization domain) (domain or fragment, UniProt Q9NZI5 248-618, looked up)
chain: SGNNFEYTLEASKSLRQKPGDSTMTYLNKGQFYPITLKEVSSSEGIHHPISKVRSVIMVVFAEDKSREDQLRHWKYWHSRQHTAKQRCIDIADYKESFNTISNIEEIAYNAISFTWDINDEAKVFISVNCLSTDFSSQKGVKGLPLNIQVDTYSYNNRSNKPVHRAYCQIKVFCDKGAERKIRDEERKQSKRKVSDVKVPLLPSHKRMDITVFKPFIDLDTQPVLFIPDVHFANLQRGTHVLPIASEELEGEGSVLKRGPYGTEDDFAVPPSTKLARIEEPKRVLLYVRKESEEVFDALMLKTPSLKGLMEAISDKYDVPHDKIGKIFKKCKKGILVNMDDNIVKHYSNEDTFQLQIEEAGGSYKLTLTEI
B2: Mut_12mer (dsDNA)
DNA 1: AAAATCGATTTT
DNA 2: AAAATCGATTTT

Key:
SEC-RALS = target: the molecule itself; assay: SEC-RALS
Grhl1 DBD = target: T1, Grhl1 DBD; assay: ITC

| Binder | stoichiometry N (SEC-RALS) | binding result (Grhl1 DBD) |
| --- | --- | --- |
| B1 | 2 | – |
| B2 | – | no binding |
